The target of one assay is T1, amyloid beta 1-42 (human, UniProt P05067 672-713).
T1 construct: amyloid beta fragment 1-42 (42 amino acids), human, synthetic; numbers count on: the Aβ peptide; Used in an oligomeric form (Preparation A) and a monomeric form (Preparation B); The two forms are told apart by the assay; also called Aβ_(1–42); Aβ; source: synthetic peptide; bought: AnaSpec
Nature of the assay: SPR; cypD captured on an amine-coupled anti-cypD antibody; oligomeric Aβ (Preparation A) injected at 1 μM for 5 min; running buffer 10 mM HEPES pH 7.4, 5 mM Na+, BSA 200 μg/mL, K+ 0-500 mM, Mg2+ 0-50 mM; 25 °C, 20 µL/min; reference-compensated response 5 min after return to buffer. The settings on record: both partners purified. (In general: In SPR one partner is held on a chip, and binding of the other changes the refractive index at the surface.)

Another assay has as its target T2, amyloid beta 1-40 (human, UniProt P05067 672-711).
T2 construct: amyloid beta fragment 1-40 (40 amino acids), human, synthetic; numbers count on: the Aβ peptide; Used in a monomeric form (Preparation C) and an oligomeric form (Preparation A); The two forms are told apart by the assay; also called Aβ_(1–40); Aβ; source: synthetic peptide; bought: AnaSpec
As to the kind of experiment: SPR; cypD captured on an amine-coupled anti-cypD antibody; monomeric Aβ (Preparation C for Aβ1-40, Preparation B for Aβ1-42) injected at 1 μM for 5 min; running buffer 10 mM HEPES pH 7.4, 5 mM Na+, BSA 200 μg/mL, K+ 0-500 mM, Mg2+ 0-50 mM; 25 °C, 20 µL/min; reference-compensated response 5 min after return to buffer. The settings on record: both partners purified.

T1 sequence (P05067 672-713): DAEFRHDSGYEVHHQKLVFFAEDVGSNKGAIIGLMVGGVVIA
T2 sequence (P05067 672-711): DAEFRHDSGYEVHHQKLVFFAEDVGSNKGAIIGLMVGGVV

B1: cyclophilin D (enzyme)
chain: not shown
notes: cyclophilin D (cypD), human, recombinant, bought from Fitzgerald; also called cypD; source: bought: Fitzgerald (human, recombinant)
In the case of B1, the binding result with amyloid beta 1-42 and with amyloid beta 1-40 was “binds” throughout.

For the origin of these results see PMC7766583 (International Journal of Molecular Sciences, 2020).
